{
  "source": "paper PMC8933513",
  "about": "(2022)",
  "binders": {"B1": {"name": "PDCoV spike (S) protein receptor binding domain (RBD), residues 300-419, wild type (domain or fragment)", "chain": "PKLPELEVVQLNISAHMDFGEARLDSVTINGNTSYCVTKPYFRLETNFMCTGCTMNLRTDTCSFDLSAVNNGMSFSQFCLSTESGACEMKIIVTYVWNYLLRQRLYVTAVEGQTHTGTTS"}},
  "assay_in_all_cases": "SPR",
  "key": {"[1]": {"target": "T1, pAPN ectodomain K374A mutant (pig, UniProt P15145 58-961, K374A)", "T1 sequence": "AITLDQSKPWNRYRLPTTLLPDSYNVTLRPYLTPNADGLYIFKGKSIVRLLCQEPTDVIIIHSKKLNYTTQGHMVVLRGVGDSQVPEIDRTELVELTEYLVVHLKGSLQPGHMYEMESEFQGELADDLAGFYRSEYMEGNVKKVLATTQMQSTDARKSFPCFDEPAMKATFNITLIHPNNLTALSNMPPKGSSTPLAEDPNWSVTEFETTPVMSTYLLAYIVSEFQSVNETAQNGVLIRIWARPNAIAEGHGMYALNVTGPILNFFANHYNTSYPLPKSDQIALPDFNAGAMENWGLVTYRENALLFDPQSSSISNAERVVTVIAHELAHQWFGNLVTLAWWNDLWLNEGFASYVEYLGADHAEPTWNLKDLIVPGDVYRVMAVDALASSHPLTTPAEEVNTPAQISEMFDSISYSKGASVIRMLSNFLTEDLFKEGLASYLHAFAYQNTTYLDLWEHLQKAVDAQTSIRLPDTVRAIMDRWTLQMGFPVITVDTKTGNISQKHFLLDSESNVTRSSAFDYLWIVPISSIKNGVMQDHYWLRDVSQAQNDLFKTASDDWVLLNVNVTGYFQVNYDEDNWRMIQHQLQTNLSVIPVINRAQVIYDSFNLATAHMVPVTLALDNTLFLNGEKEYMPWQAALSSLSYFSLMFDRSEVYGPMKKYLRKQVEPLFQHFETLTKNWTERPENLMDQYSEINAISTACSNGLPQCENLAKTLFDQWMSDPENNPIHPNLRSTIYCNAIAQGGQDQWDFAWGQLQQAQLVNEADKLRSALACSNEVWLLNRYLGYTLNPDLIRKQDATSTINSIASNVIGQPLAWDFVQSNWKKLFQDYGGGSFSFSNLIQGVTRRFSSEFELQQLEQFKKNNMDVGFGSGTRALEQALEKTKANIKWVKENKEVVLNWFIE"}, "[2]": {"target": "hAPN ectodomain W429A mutant (human, UniProt P15144 62-963, W429A)", "sequence (P15144 62-963 W429A)": "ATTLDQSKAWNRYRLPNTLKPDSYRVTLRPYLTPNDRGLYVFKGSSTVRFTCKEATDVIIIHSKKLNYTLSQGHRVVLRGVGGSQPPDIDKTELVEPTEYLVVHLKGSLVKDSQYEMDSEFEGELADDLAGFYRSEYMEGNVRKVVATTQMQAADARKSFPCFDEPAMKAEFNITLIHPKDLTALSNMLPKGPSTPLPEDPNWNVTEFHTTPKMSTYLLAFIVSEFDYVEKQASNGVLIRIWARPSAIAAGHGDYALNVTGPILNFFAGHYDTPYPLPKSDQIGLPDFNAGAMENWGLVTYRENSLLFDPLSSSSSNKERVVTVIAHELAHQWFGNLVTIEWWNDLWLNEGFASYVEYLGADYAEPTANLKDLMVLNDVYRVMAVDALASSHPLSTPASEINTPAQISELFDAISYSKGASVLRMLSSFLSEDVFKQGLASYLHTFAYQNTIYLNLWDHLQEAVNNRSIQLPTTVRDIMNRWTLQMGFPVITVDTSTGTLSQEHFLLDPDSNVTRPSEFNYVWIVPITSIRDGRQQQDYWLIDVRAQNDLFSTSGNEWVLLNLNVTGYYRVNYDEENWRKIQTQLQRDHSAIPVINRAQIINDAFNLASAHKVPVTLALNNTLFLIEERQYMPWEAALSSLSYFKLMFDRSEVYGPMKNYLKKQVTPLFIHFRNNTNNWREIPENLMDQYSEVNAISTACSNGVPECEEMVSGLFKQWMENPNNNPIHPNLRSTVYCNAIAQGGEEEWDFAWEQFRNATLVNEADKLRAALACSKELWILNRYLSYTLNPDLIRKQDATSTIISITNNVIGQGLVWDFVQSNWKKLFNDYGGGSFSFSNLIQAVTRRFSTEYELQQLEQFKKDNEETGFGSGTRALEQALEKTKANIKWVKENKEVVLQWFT"}, "[3]": {"target": "T2, porcine aminopeptidase N (pAPN) ectodomain, residues 58-961, wild type (pig, UniProt P15145 58-961)", "T2 chain": "T1 sequence with A317K"}, "[4]": {"target": "hAPN ectodomain Y316A mutant (human, UniProt P15144 62-963, Y316A)", "sequence (P15144 62-963 Y316A)": "as the sequence (P15144 62-963 W429A) above, with Y255A, A368W counted along it"}, "[5]": {"target": "hAPN ectodomain E742A mutant (human, UniProt P15144 62-963, E742A)"}, "[6]": {"target": "hAPN ectodomain H789A mutant (human, UniProt P15144 62-963, H789A)"}},
  "note": "Changes are numbered by the printed parent chain.",
  "data": [
    {"binder": "B1", "values": [
      {"measurement": "Kd", "setting": "[1]", "value": "> 1000", "unit": "µM"},
      {"measurement": "Kd", "setting": "[2]", "value": 127, "unit": "µM"},
      {"measurement": "Kd", "setting": "[3]", "value": 44.2, "unit": "µM"},
      {"measurement": "Kd", "setting": "[4]", "value": 37.1, "unit": "µM"},
      {"measurement": "Kd", "setting": "[5]", "value": 13.7, "unit": "µM"},
      {"measurement": "Kd", "setting": "[6]", "value": 6.25, "unit": "µM"}
    ]}
  ]
}
